From patent US20230331811A1, “IMMOBILIZED SELF-ASSEMBLED PROTEIN MULTIMERS” (CCOA THERAPEUTICS INC., priority 2020, published 2023) come the findings set out here.

Assay [1] has as its target Recombinant human ectodomain αIIbβ3, inactive (before activation) (human) (UniProt P08514). Nature of the assay: flow cytometry, 50 nM Alexa488-fibrinogen on inactive αIIbβ3 beads. Background: Flow cytometry measures light scatter and fluorescence of single cells or particles in a stream.
For assay [2] the target is unchanged. The assay is described as follows: flow cytometry, 50 nM FITC-PAC 1 on inactive αIIbβ3 beads.
The target of assay [3] is Recombinant human ectodomain αIIbβ3, activated (high-affinity ligand binding conformation) (human) (UniProt P08514). The assay is described as follows: flow cytometry, 50 nM FITC-PAC 1 on activated αIIbβ3 beads.
Recombinant human ectodomain αIIbβ3, activated (high-affinity ligand binding conformation) (human), sequence (P08514 other isoform, or with tags, fused parts or gaps limits assumed, chain 1 of 2): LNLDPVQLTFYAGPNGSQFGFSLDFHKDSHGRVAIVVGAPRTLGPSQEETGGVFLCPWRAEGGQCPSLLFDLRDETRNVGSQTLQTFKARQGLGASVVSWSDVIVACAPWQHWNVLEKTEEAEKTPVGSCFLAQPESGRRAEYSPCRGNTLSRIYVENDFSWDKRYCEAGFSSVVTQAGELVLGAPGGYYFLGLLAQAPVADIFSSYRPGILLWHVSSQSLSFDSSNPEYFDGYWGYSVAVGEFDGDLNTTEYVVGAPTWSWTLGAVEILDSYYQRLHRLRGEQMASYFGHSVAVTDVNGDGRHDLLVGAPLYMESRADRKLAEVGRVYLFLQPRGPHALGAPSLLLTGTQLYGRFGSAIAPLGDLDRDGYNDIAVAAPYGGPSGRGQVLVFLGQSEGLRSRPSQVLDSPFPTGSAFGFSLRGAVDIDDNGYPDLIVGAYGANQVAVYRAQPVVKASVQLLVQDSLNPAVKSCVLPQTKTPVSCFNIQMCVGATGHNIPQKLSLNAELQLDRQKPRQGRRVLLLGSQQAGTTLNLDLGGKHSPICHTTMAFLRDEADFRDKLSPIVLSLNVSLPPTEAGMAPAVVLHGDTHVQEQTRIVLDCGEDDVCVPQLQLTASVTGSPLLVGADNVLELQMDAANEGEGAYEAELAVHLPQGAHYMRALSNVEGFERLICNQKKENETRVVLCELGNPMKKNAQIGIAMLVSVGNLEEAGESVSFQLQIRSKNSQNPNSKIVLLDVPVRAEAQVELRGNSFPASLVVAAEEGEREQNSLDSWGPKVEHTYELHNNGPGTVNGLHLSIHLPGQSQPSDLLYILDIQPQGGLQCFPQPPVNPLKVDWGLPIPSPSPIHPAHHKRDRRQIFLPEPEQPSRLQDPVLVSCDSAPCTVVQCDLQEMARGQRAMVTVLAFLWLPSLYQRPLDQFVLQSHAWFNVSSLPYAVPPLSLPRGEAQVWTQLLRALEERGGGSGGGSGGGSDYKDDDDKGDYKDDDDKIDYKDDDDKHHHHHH
Recombinant human ectodomain αIIbβ3, activated (high-affinity ligand binding conformation) (human), sequence (chain, as listed by the source limits assumed, chain 2 of 2): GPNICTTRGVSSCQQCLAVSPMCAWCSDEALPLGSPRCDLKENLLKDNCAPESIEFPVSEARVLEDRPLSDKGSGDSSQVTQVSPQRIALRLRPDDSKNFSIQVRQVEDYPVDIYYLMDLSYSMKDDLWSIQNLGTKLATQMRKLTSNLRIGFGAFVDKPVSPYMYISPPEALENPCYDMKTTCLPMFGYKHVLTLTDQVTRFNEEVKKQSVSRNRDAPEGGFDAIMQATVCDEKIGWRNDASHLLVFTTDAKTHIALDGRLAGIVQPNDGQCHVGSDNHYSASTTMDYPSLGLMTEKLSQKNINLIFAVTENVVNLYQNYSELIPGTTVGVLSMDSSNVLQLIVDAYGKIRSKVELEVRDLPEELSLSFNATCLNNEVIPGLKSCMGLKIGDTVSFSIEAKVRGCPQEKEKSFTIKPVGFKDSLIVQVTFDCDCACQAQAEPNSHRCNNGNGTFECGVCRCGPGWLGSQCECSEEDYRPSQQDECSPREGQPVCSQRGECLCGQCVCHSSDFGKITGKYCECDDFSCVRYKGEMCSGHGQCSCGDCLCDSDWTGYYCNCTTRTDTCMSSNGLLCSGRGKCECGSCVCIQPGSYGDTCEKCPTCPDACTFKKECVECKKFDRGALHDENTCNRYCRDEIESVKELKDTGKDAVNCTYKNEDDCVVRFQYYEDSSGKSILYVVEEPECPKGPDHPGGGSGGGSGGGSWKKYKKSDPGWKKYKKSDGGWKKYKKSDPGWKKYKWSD

Recombinant human ectodomain αIIbβ3, inactive (before activation) (human), sequence (P08514 other isoform, or with tags, fused parts or gaps limits assumed, chain 1 of 2): as the sequence (P08514 other isoform, or with tags, fused parts or gaps limits assumed, chain 1 of 2) above
Recombinant human ectodomain αIIbβ3, inactive (before activation) (human), sequence (chain, as listed by the source limits assumed, chain 2 of 2): as the sequence (chain, as listed by the source limits assumed, chain 2 of 2) above

Take “Fibrinogen (from UniProt P02671 20-644; P02675 31-491; P02679 27-437) (ligand)”: the Mean Fluorescence Intensity (MFI) in assay [1] amounted to 52.7 MFI.

Consider “PAC-1 (antibody specific for the active upright conformation of αIIbβ3)”, for which the Mean Fluorescence Intensity (MFI) in assay [2] was 212 MFI; in assay [3], 942 MFI.
